Reference: article PMC4570232 (Cell reports, 2015)

Columns and labels:
[1] = molecular target: HA-GST-tagged Ragulator (UniProt Q9Y2Q5 1-125; Q9UHA4 1-124; Q6IAA8 1-161; O43504 1-91; Q0VGL1 1-99, G2A); assay: pull-down
[2] = molecular target: FLAG-tagged Ragulator (UniProt Q6IAA8 1-161; Q9UHA4 1-124; Q9Y2Q5 1-125; O43504 1-91; Q0VGL1 1-99, G2A); assay: pull-down

B1: FLAG-tagged c17orf59 (natural protein)
chain: MESSRGRPGPETDLLAVAEHQALVFGGGPGRTSSEPPAGLRVSGEEETENVGGANRHPRTSPKTSSCGVVHRPEREALENEPGPQGTLSGAGSRRGAPGAEHEPSLSSRHKNPAPPEGKPSSGRDCRRGGPGGGMDVEQQEEEDNDEEAAAGSRAGRSFSSRLQDSRSLDGLSEACGGAGSSGSAESGAGGGRRATISSPLELEGTVSRHGDLTHFVANNLQLKIRLSGAPPPPPSAPARPCPAPAPTPTPAIPPIDPEVLRDLERLSRELGGRVDRLLRGLGGAVQELTALSVGCIQTYRDAVDSLGEAVDMSIKGMYTLLARCEELERALQPVQGLARQVRDIRRTLEVLEALCK
B1: binds [1]; binds [2].
